Experimental data reported in article PMC11303396 (Nature Communications, 2024).

Target: the molecule itself
Test: cryo-EM structure

B1: mouse ClC-3b I607T mutant (natural protein, UniProt P51791 1-818, looked up)
chain: MESEQLFHRGYYRNSYNSITSASSDEELLDGAGAIMDFQTSEDDNLLDGDTAAGTHYTMTNGGSINSSTHLLDLLDEPIPGVGTYDDFHTIDWVREKCKDRERHRRINSKKKESAWEMTKSLYDAWSGWLVVTLTGLASGALAGLIDIAADWMTDLKEGICLSALWYNHEQCCWGSNETTFEERDKCPQWKTWAELIIGQAEGPGSYIMNYIMYIFWALSFAFLAVSLVKVFAPYACGSGIPEIKTILSGFIIRGYLGKWTLMIKTITLVLAVASGLSLGKEGPLVHVACCCGNIFSYLFPKYSTNEAKKREVLSAASAAGVSVAFGAPIGGVLFSLEEVSYYFPLKTLWRSFFAALVAAFVLRSINPFGNSRLVLFYVEYHTPWYLFELFPFILLGVFGGLWGAFFIRANIAWCRRRKSTKFGKYPVLEVIIVAAITAVIAFPNPYTRLNTSELIKELFTDCGPLESSSLCDYRNDMNASKIVDDIPDRPAGVGVYSAIWQLCLALIFKIIMTVFTFGIKVPSGLFIPSMAIGAIAGRIVGIAVEQLAYYHHDWFIFKEWCEVGADCITPGLYAMVGAAACLGGVTRMTVSLVVIVFELTGGLEYTVPLMAAVMTSKWVGDAFGREGIYEAHIRLNGYPFLDAKEEFTHTTLAADVMRPRRSDPPLAVLTQDNMTVDDIENMINETSYNGFPVIMSKESQRLVGFALRRDLTIAIESARKKQEGIVGSSRVCFAQHTPSLPAESPRPLKLRSILDMSPFTVTDHTPMEIVVDIFRKLGLRQCLVTHNGIVLGIITKKDILRHMAQTANQDPASIMFN
binding result: binds
